Drawing on publication PMC10725331, this text covers Kd for one substance.

Assay in all cases: direct binding assay (cell-free, plate-based luminescence); GFP-TRKB from 120 ug HEK293T lysate captured on anti-GFP coated 96-well plate; biotinylated BDNF 0.1-100 pM added for 1 h at RT in PBS; HRP-streptavidin and ECL; blank wells subtracted
In experiment [1] the target is GFP-TRKB.wt (rat) (UniProt Q63604).
In experiment [2] the target is GFP-TRKB/TRKA.TM (rat) (UniProt Q63604).
Experiment [3] addresses GFP-TRKB.Tyr433Phe (rat) (UniProt Q63604).

One may read the Kd as the concentration at which binding is half-saturated. Read a low Kd as tighter binding. Turning to “biotinylated BDNF (brain-derived neurotrophic factor) (ligand)”, the Kd was 0.39 pM in experiment [1], 0.387 pM in experiment [2] and 0.438 pM in experiment [3].
